Test: yeast display, Sf9 membrane polyspecificity reagent, FACS + sequencing; frameworks hold sequencing errors
How it was run: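 Using colony PCR, genes from sorted yeast display clones were amplified, then sequenced on MiSeq at 2 × 250 and filtered by CDR length. The clones had been stained with 10% biotinylated, detergent-solubilized Sf9 membrane reagent for 1 hour at 4 °C and sorted by FACS into low and high (top ~1%) gates on anti-HA and streptavidin fluorescence. Polyreactivity labels come from the gate of origin.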

Sequence | polyreactivity (PSR sort gate)
QVQLVESGGGLVQAGGSLRLSCAASGRILFHYAMGWYRRAPGKERELVAAITWRGGGTHYADSVKGRFTISRDNAKNTVYLQKNSLKPEDTAVYYCNAEYNGYFSRSGFYYWGQGTQVTVSS | low polyreactivity
QVQLVESGGGLVQAGGRLRLSCAASGRIYGLYAMGWYRQAPGKERELVAAITLSGDGTDYADSVKGRFTISRDNAKNTVYLQMTSLKPDDTAVYYCAKVGQYWWNMDYWGQGTQVTVSS | low polyreactivity
QVQLVESGGGLVHAGGSLRLSCSASGSTLRFNAMGWYRQAPGKVREFVATITRRGGSTYYADSEKGRFTISRDNAKNTVYLQMNSLKPEDTAVYYCAADRGGYSVLGGYWGQGTQVTVSS | high polyreactivity
QVQHVESGGGLVQAGGSLRLSCAASGLIFTKNAMGWCRQARGKEWELVAAISRGGGTPYYADSVKGRFTISRDHAKNTVYLQMNSLKPEDTAVYYCAAESYLQYPGAGDSWGQGTQVTVSS | high polyreactivity
QVQLVESGGGLVQAGGSLRLSCAASGSIIGVNAMGWYRQAPGKERELVAAISSTGGSTYYADSVKGRFTISRDNAKNTVYLQMNSLKPEDTAVYYCAAVLIDPDSNLETGGIFDYWGQGTQVTVSS | low polyreactivity
QVQLVESGGGLVQAGGSLRLSCAASGRTFFGNAMGWYRQAPGKERELVAVISQGGGSTYYADSVKGRFTISRDNAKNTVYLQMNSLKPEDTAVYYCAKRYPHFGSGQLGGTYNYWGQGTQVTVSS | low polyreactivity
QVQLVESGGGLVQAGGSLRLSCAASGSTLDRNTMGWYRAAPGKESELVAAITWSGGRTYYADSVKGRFTISRDNANNSVYLQLNSLKPEDTAVYYCNKDYWKRPVDEYDYWGQGTQVTVSS | high polyreactivity
QVQLVESGGGLVHAGGSLRLSCAASGSTFPAYAMGWYRQAPGKERELVAGITRGGSTYYADSVKGRFTISRDNAKNTVYLQMNSLKPEDSAVYYCAAYVLPWRGRGQTEYGYWGQGTQVTVSS | low polyreactivity
QVQLVESGGGLVQAGGSLRLICAASGRISGRYAMGWYRQAPGKERELVAAITSRGGRTYYADSVKGRFTISRDNAKNTVYLQMNSLKPEDTAVYYCIAVGGYWFDYWGQGTQVTVSS | high polyreactivity
QVQLVESGGGLVQAGGSLRLSCAASGFTLAFYGMGRSRQAPGKERELVAAISRSGGSTYYADSVKGRFTISRDNAKNTVYLQMNSLKPEDTAVYYCAAAFRAGDVYGYYWGQGTQVTVSS | high polyreactivity
QVQLVESGGGLVQAGGSLRLSCAASGRIFRNTMGWYIQAPGKERELVAAITDTTDSTYYADSVKGRFTISRDNAKNTVYLQMYSLKPEDTAVYYCAARYGGYVNRPYYYWGQGTQVTVSS | low polyreactivity
QVQLVESGGGLVQAAGSLRLSCAASGSTFQYYAMGWYRQAPGKERELVAAISASVDTTFYADSVKGRFTISRDNAKNTVYLQMNSLKPEDTAVYYCAKRYVDPLGSGTHGSWGQGTQVTVSS | low polyreactivity
QVQLVESGGGLVQAGGSLRLSCAASGFTYYWNAMGWYRQAPGKERELVAAINWRGTSTYYADSVKGRFTISRDNAKNTVYLQMNSLKPEDTAVYYCNTYGYVEYDWGQGTQVTVSS | high polyreactivity
QVQLEESVGGLVQAGGSLRLSCAASGRIFRGYAMGWYRQAPGKETELVATISAIGGSTYADSVKGRFTISRDNAKNTVYLQKNSLKPEDTAVYYCNVRKVYRYQFRFEYWGQGTQVTVSS | high polyreactivity
QVQLVESGGGLVQAGGSLRLSCAASGFTFYTNVMGWYIQAPGKERELVAAINSGGSTNYADSVKGRFTISRDNAKNTVYLQMNSLKPEDTAVYYCNKRGTEIGYDYWGQGTQVTVLS | low polyreactivity
QVQLVESGGGLVQAGGSLRLSCAASGSTFAGNAMGWYRQAPGKERELVAAISSSGAGTYYADSVKGRFTISRDNAKNTVYLQMNSLKPEDTAVYYCNVGSRALRRRVRSVSFDYWGQGTQVTVSS | low polyreactivity

Sequence | polyreactivity (PSR sort gate)
QVQLVESGGGLVQAGGSLRLSCAASGRIFKYYVMGWYRQPPGKERELVAGISSSGGSTYYADSVKGRFTISRDNAKNTVYLQMNSLKPEDTAVYYCAADYTFAYYNVKMDYWGQGTQVTVSS | low polyreactivity
QVHLVESGGGLVQAGGSLRLSCAASGFTYSPYVMGWSRQAPGKEWELVASISKRGGGTYYADSVKGRFTISRDNAKKTFYLQMNRLKPEDTAVYYCNVVTATAYQGVDYWGQGSQVTVSS | high polyreactivity
QVQLVESGGGLVQAGGSLRLTCAASGRTFGVYAMGWYRQAPGKERELVADITSGGGTYYADSVKGRFTILRDNAKNTVYLQMNSLKPEDTAVYYCAARKWYYAYEYWGQGTQVTVSS | high polyreactivity
QVQLVESGGGLVQAGGSLRLSCAASGFIFPGNMGWYRQAPGKERELVAAISWSGGSTRYADSVKGRFTISRDNAKNTVYLQMNSLKPEDTAVYYCAASLSGKRFTKRYYWGQGTQVTVSS | high polyreactivity
QVHLVESGGGLVQAGGSLRLSCAASGRIFFYYAMGWYRQAPGKERELVAAISSTGGSTNYADSVKGRFTISRDNAKNTVYLQMNSLKPEDTAVYYCNKDLYYAYDYWGQGTQVTVSS | low polyreactivity
QVHLVESGGGLVQAGGSLRLSCAASGRIFGIYAMGWYRQAPGKERELVALITGGGSTNYADSVKGRFTISRDNAKNTVYLQMNSLKPEDTAVYYCAATVRRIVGNITRYDYWGQGTQVTVSS | low polyreactivity
QVQLVESGGGLVQAGGSLRLSCAASGSNFGYYAMGWYRQAPGKERELVAAISWRGGSTYYADSVTGRFTISRDNAKNTVYLQMNSLTPEDTAVYDCAAPVGNYGSFDYWGQGTQVTVSS | low polyreactivity
QVQLVESGGGLVQAGGSLRLSCAASGLTFHAYAMGWYRQAPGKEREFVAAITRSGSSTSYAYSVKGRFTISRDNAKNTVYLQMNSLKPEDTAVYYCAAQGSRKYRNDYWGQGTQVTVSS | high polyreactivity
QVQLVESGGGLVQAGGSLRLSCAASGNIRNYGMGCSRQAPGKERELVDAISSGGVRTYYADSVKGRFTLSRDNAKNTVYLQMNSLKPEETAVYYCAVASWYYLYPPGYRAITHDYWGQGTQVTVSS | high polyreactivity
QVQHVESGGALVQAGGSLRLSCAASGFTFTRNTMGWYRQAPGKERELVAAITRGGSTNYADSVKGRFTISRDNAKNTVYLQMNSLKPEDTAVYYCNKGRNVVLVRTADDYWGQGTQVTVSS | low polyreactivity
QVQLVESGGGLVQAGGSLRLSCAASGFIFKRYSMGWYRQAPGKERELVAAITSGGSTHYADSVKGRFTISRDNAKNTVYLQMNSLKPEDTAVYYCATRRYKWGVRYDYWGQGTQVTVSS | high polyreactivity
QVQLVESGGGLVQAGGSLRLTCAASGLTFDSNVMGWYRQAPGKERELVAAITASGGRTYYADSVKGRFTISRDNAKNTVYLQMNSLKPEDTAVYYCAADSRSAYDYWGQGSQVTVSS | high polyreactivity
QVQLEESGRGLVQAGGSLRLSCAASGFTFNWYAMGWSSQATGKERELVATINSGGSTYYADSVKGRFTISRDNAKNTVYLQMNSLKPEDTAVYYCNRTHRRRYVKSAYNYWGQGTQVTVSS | low polyreactivity
QVQLVESGGGLVQAGGSLRLSCAAYGRIFGYYAMGWYRQAPGKEREFVATISRSGGRTYYADSVKGRFTISRDNAKNTVYLQMNSLKPEDTAVYYCAKGVQFGSKTTFWYDYWGQGTQVTVSS | high polyreactivity
QVQLQESGGGLVQAGGSLRLSCAASGSIFVSVTMGWYRQAPGKERELVASIGRGSTTNHADSVKGRFTISRDNAKNIVYLLMNSLKPEDTAVYYCAALESYGKYHGYWGQGTQVTVCS | low polyreactivity
QVQLVESGGGLVQAGGSLRLSCAASGIIFYYYTIGWYRPAPGKERELVASITWSGGGSTYYADSVKGRFTISRDNAKNTVYLQMNCLNPEDTAVYYCNADEYYSYYYWGQGTQVTVSS | low polyreactivity

Source: the nanobody polyreactivity screen of Harvey et al. (2022)
